B1: library; numbered along this chain (parent)
chain: MAAAGGARLLRAASAVLGGPAGRWLHHAGSRAGSSGLLRNRGPGGSAEASRSLSVSARARSSSEDKITVHFINRDGETLTTKGKVGDSLLDVVVENNLDIDGFGACEGTLACSTCHLIFEDHIYEKLDAITDEENDMLDLAYGLTDRSRLGCQICLTKSMDNMTVRVPETVADARQSIDVGKTS

Variants of: B1
Assay: scaled log2 fold change in cell abundance, elesclomol vs control (0 = silent mean, 1 = nonsense mean) (scaled log2 ratio); higher = higher viability under elesclomol (loss of FDX1 cuproptosis function)
Conditions: glucose 10 mM
[1] = with ABC1 FDX1 KO, elesclomol 5 nM, 14 days
[2] = with HEK293T FDX1 KO, elesclomol 40 nM, 11 days
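Further: variant abundance is its share of total variant reads in each endpoint sample, from next-generation sequencing of the integrated ORF PCR-amplified out of genomic DNA.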

MAAAGGARLLRAASAVLGGPAGRWLHHAGSRAGSSGLLRNRGPGGSAEASRSLSVSARARSSSEDKITVHFINRDGETLTTKGKVGDSLLDVVVENNLDIDGFGACEGTLACSTCHLIFEDHIYEKLDAITDEENDMLDLAYGLTDRSRLGCQICLTKSMDNMTVRVPTTVADARQSIDVGKTS
scaled log2 fold change [1]: -0.402 | scaled log2 fold change [2]: -0.135

MAAAGGARLLRAASAVLGGPAGRWLHHAGSRAGSSGLLRNRGPGGSAEASRSLSVSARARSSSEDKITVHFINRDGETLTTKGKVGDSLLDVVVENNLDIDGFGACEGTLACSTCHLIFEDHIYEKLDAITDEENDMLDLAYGLTDRSRLGCQICLTKSMDNMTVRVPMTVADARQSIDVGKTS
scaled log2 fold change [1]: -0.846 | scaled log2 fold change [2]: 0.0592

MAAAGGARLLRAASAVLGGPAGRWLHHAGSRAGSSGLLRNRGPGGSAEASRSLSVSARARSSSEDKITVHFINRDGETLTTKGKVGDSLLDVVVENNLDIDGFGACEGTLACSTCHLIFEDHIYEKLDAITDEENDMLDLAYGLTDRSRLGCQICLTKSMDNMTVRVPQTVADARQSIDVGKTS
scaled log2 fold change [1]: -0.166 | scaled log2 fold change [2]: 0.849

MAAAGGARLLRAASAVLGGPAGRWLHHAGSRAGSSGLLRNRGPGGSAEASRSLSVSARARSSSEDKITVHFINRDGETLTTKGKVGDSLLDVVVENNLDIDGFGACEGTLACSTCHLIFEDHIYEKLDAITDEENDMLDLAYGLTDRSRLGCQICLTKSMDNMTVRVPLTVADARQSIDVGKTS
scaled log2 fold change [1]: -0.227 | scaled log2 fold change [2]: -0.347

MAAAGGARLLRAASAVLGGPAGRWLHHAGSRAGSSGLLRNRGPGGSAEASRSLSVSARARSSSEDKITVHFINRDGETLTTKGKVGDSLLDVVVENNLDIDGFGACEGTLACSTCHLIFEDHIYEKLDAITDEENDMLDLAYGLTDRSRLGCQICLTKSMDNMTVRVPWTVADARQSIDVGKTS
scaled log2 fold change [1]: -0.134 | scaled log2 fold change [2]: 0.73

MAAAGGARLLRAASAVLGGPAGRWLHHAGSRAGSSGLLRNRGPGGSAEASRSLSVSARARSSSEDKITVHFINRDGETLTTKGKVGDSLLDVVVENNLDIDGFGACEGTLACSTCHLIFEDHIYEKLDAITDEENDMLDLAYGLTDRSRLGCQICLTKSMDNMTVRVPSTVADARQSIDVGKTS
scaled log2 fold change [1]: -1.11 | scaled log2 fold change [2]: -0.0914

MAAAGGARLLRAASAVLGGPAGRWLHHAGSRAGSSGLLRNRGPGGSAEASRSLSVSARARSSSEDKITVHFINRDGETLTTKGKVGDSLLDVVVENNLDIDGFGACEGTLACSTCHLIFEDHIYEKLDAITDEENDMLDLAYGLTDRSRLGCQICLTKSMDNMTVRVPVTVADARQSIDVGKTS
scaled log2 fold change [1]: -0.251 | scaled log2 fold change [2]: 0.342

MAAAGGARLLRAASAVLGGPAGRWLHHAGSRAGSSGLLRNRGPGGSAEASRSLSVSARARSSSEDKITVHFINRDGETLTTKGKVGDSLLDVVVENNLDIDGFGACEGTLACSTCHLIFEDHIYEKLDAITDEENDMLDLAYGLTDRSRLGCQICLTKSMDNMTVRVPRTVADARQSIDVGKTS
scaled log2 fold change [1]: 0.0391 | scaled log2 fold change [2]: 0.411

MAAAGGARLLRAASAVLGGPAGRWLHHAGSRAGSSGLLRNRGPGGSAEASRSLSVSARARSSSEDKITVHFINRDGETLTTKGKVGDSLLDVVVENNLDIDGFGACEGTLACSTCHLIFEDHIYEKLDAITDEENDMLDLAYGLTDRSRLGCQICLTKSMDNMTVRVPYTVADARQSIDVGKTS
scaled log2 fold change [1]: -0.0627 | scaled log2 fold change [2]: -0.484

MAAAGGARLLRAASAVLGGPAGRWLHHAGSRAGSSGLLRNRGPGGSAEASRSLSVSARARSSSEDKITVHFINRDGETLTTKGKVGDSLLDVVVENNLDIDGFGACEGTLACSTCHLIFEDHIYEKLDAITDEENDMLDLAYGLTDRSRLGCQICLTKSMDNMTVRVPPTVADARQSIDVGKTS
scaled log2 fold change [1]: -0.343 | scaled log2 fold change [2]: 0.322

MAAAGGARLLRAASAVLGGPAGRWLHHAGSRAGSSGLLRNRGPGGSAEASRSLSVSARARSSSEDKITVHFINRDGETLTTKGKVGDSLLDVVVENNLDIDGFGACEGTLACSTCHLIFEDHIYEKLDAITDEENDMLDLAYGLTDRSRLGCQICLTKSMDNMTVRVPNTVADARQSIDVGKTS
scaled log2 fold change [1]: -0.234 | scaled log2 fold change [2]: 0.306

MAAAGGARLLRAASAVLGGPAGRWLHHAGSRAGSSGLLRNRGPGGSAEASRSLSVSARARSSSEDKITVHFINRDGETLTTKGKVGDSLLDVVVENNLDIDGFGACEGTLACSTCHLIFEDHIYEKLDAITDEENDMLDLAYGLTDRSRLGCQICLTKSMDNMTVRVPECVADARQSIDVGKTS
scaled log2 fold change [1]: 0.268 | scaled log2 fold change [2]: -0.365

MAAAGGARLLRAASAVLGGPAGRWLHHAGSRAGSSGLLRNRGPGGSAEASRSLSVSARARSSSEDKITVHFINRDGETLTTKGKVGDSLLDVVVENNLDIDGFGACEGTLACSTCHLIFEDHIYEKLDAITDEENDMLDLAYGLTDRSRLGCQICLTKSMDNMTVRVPEDVADARQSIDVGKTS
scaled log2 fold change [1]: 0.239

MAAAGGARLLRAASAVLGGPAGRWLHHAGSRAGSSGLLRNRGPGGSAEASRSLSVSARARSSSEDKITVHFINRDGETLTTKGKVGDSLLDVVVENNLDIDGFGACEGTLACSTCHLIFEDHIYEKLDAITDEENDMLDLAYGLTDRSRLGCQICLTKSMDNMTVRVPEGVADARQSIDVGKTS
scaled log2 fold change [1]: 0.233 | scaled log2 fold change [2]: -0.241

MAAAGGARLLRAASAVLGGPAGRWLHHAGSRAGSSGLLRNRGPGGSAEASRSLSVSARARSSSEDKITVHFINRDGETLTTKGKVGDSLLDVVVENNLDIDGFGACEGTLACSTCHLIFEDHIYEKLDAITDEENDMLDLAYGLTDRSRLGCQICLTKSMDNMTVRVPEEVADARQSIDVGKTS
scaled log2 fold change [1]: 0.0373 | scaled log2 fold change [2]: -0.644

MAAAGGARLLRAASAVLGGPAGRWLHHAGSRAGSSGLLRNRGPGGSAEASRSLSVSARARSSSEDKITVHFINRDGETLTTKGKVGDSLLDVVVENNLDIDGFGACEGTLACSTCHLIFEDHIYEKLDAITDEENDMLDLAYGLTDRSRLGCQICLTKSMDNMTVRVPEAVADARQSIDVGKTS
scaled log2 fold change [1]: -0.0897 | scaled log2 fold change [2]: -0.0909

MAAAGGARLLRAASAVLGGPAGRWLHHAGSRAGSSGLLRNRGPGGSAEASRSLSVSARARSSSEDKITVHFINRDGETLTTKGKVGDSLLDVVVENNLDIDGFGACEGTLACSTCHLIFEDHIYEKLDAITDEENDMLDLAYGLTDRSRLGCQICLTKSMDNMTVRVPEFVADARQSIDVGKTS
scaled log2 fold change [1]: 0.262 | scaled log2 fold change [2]: 0.826
